US9828641B2, “Systemic genotoxicity as blood marker for allergic inflammation” (The Regents of the University of California, priority 2013, dated 2017)
“Also recorded” adds a separate entry of the source.

B1: IL-β: Recombinant mouse IL-1β (Sigma), injected via the tail vein at 100 ng/mouse (protein, UniProt P10749 118-269, looked up)
Interleukin-1 beta: VPIRQLHYRLRDEQQKSLVLSDPYELKALHLNGQNINQQVIFSMSFVQGEPSNDKIPVALGLKGKNLYLSCVMKDGTPTLQLESVDPKQYPKKKMEKRFVFNKIEVKSKVEFESAEFPNWYISTSQAEHKPVFLGNNSGQDIIDFTMESVSS

Assays:
[1] = system: TNF-α, MCP-1, IFN-γ, TGF-β transcripts; experiment: Quantitative real-time PCR of cytokines in peripheral blood; type: in vivo, mice; details: 3% DSS, particularly after the first cycle
Description: Total RNA was isolated using QiaAmp RNA Blood Mini Kit (Qiagen) according to manufacturer's instructions. 25 ng/μl of total RNA was used for reverse transcription using OligodT (Invitrogen) and Superscript III Reverse Transcriptase (Invitrogen). 10 ng/μl of cDNA was used for quantitative real time PCR using Taqman Gene Expression Assays (Applied Biosystems, Foster City, Calif. p/n 4331182) for Tbp (TATA binding protein), TNF-α (tumor necrosis factor α), MCP-1 (monocyte chemoattractant protein 1, also known as CC chemokine ligand 2, CCL2), IFN-γ (interferon γ), TGF-β ([…]) and Taqman Gene Expression Master Mix according to manufacturer's instructions on the ABI Prism 7500 sequence detection system (Applied Biosystems). Tbp was chosen as the endogenous control due to its low variability and low to medium relative abundance in terms of expression in blood (30). Each measurement was performed in triplicate and results were analyzed using SDS 2.2.1 software (Applied Biosystems). Gene expression was determined using the relative standard curve method normalized to Tbp expression.

[2] = literature statement; cited from earlier work
[3] = system: peripheral leukocytes; experiment: γ-H2AX immunofluorescence (DNA double strand breaks); type: in vivo, mice; details: 3% DSS
Description: Peripheral blood was incubated in Buffer EL (Qiagen, Valencia, Calif.) on ice to remove erythrocytes. Samples were then processed on coverslips essentially as described elsewhere (26). […] Coverslips were mounted with [sequence] with 4,6-diamidino-2-phenylindole (Vector Laboratories, Burlingame, Calif.). Images were captured with CytoVision® (Applied Imaging Corporation, San Jose, Calif.) connected to a Zeiss Axioplan 2 microscope. At least 125 cells were counted and cells with more than four distinct foci in the nucleus were considered positive for γ-H2AX (26). Apoptotic cells, which are distinguishable due to presence of 10-fold the number of nuclear foci in damaged cells (27), were not included in analyses.
Peripheral blood and splenocytes were incubated in Buffer EL (Qiagen, Valencia, Calif.) on ice to remove erythrocytes. […] Samples were then processed on coverslips as described elsewhere (6). Briefly, after permeabilization and blocking, cells were incubated with mouse anti-phospho-Histone H2A.X S139(P) (Upstate, Temecula, Calif.) at 1:400 followed by FITC-conjugated anti-mouse IgG (Jackson ImmunoResearch, West Grove, Pa.) at 1:200. Coverslips were mounted with [sequence] with 4,6-diamidino-2-phenylindole (Vector Laboratories, Burlingame, Calif.). […] At least 125 cells were counted and cells with more than four distinct foci in the nucleus were considered positive (6). […]

[4] = system: normochromatic erythrocytes; experiment: In vivo micronucleus assay; details: wildtype mice, 48 hours post-injection
Description: Micronuclei (MN) formation was determined in peripheral blood erythrocytes to assess chromosomal instability. Similar to a previously proposed method (28), 3 μl of whole blood was spread on a microscope slide and stained in Modified Wright-Giemsa solution (Sigma-Aldrich, St. Louis, Mo.). MN were counted and scored with an Olympus Ax70 (Tokyo, Japan) at 100× following previously proposed criteria (29). At least 4000 mature erythrocytes were counted per mouse, and the frequency of MN formation was calculated as number of micronucleated erythrocytes per 1000 normochromatic erythrocytes.
Micronucleus formation was determined in normochromatic erythrocytes as micronucleated normochromatic erythrocytes per 1000 normochromatic erythrocytes as described previously (1, 8).
Mouse TNF-α (Sigma) and/or mouse IL-1β (Sigma) were injected via the tail vein at 500 ng/mouse and 100 ng/mouse, respectively, dissolved in saline. Control animals received vehicle only. Peripheral blood was collected at 1 hr, 2 hrs, 4 hrs, and 24 hrs after injection for genotoxicity assays.

[5] = system: peripheral leukocytes; experiment: Alkaline comet assay with and without hOgg1 incubation; type: in vivo; details: wildtype mice, single tail vein injection; for Time of maximum DNA damage to peripheral leukocytes: TNF-α 500 ng or IL-β 100 ng alone; for Time to repair of DNA damage in peripheral leukocytes: TNF-α 500 ng/mouse or IL-β 100 ng/mouse alone
Description: Frozen blood was further diluted 1:15 in PBS before further preparation.
(§1) The enzyme hOgg1-modified comet assay was used for determination of oxidative DNA damage (25). Following lysis, samples were washed in an enzyme wash buffer (40 mM HEPES, 0.1M KCl, 0.5 mM EDTA, 0.2 mg/ml BSA, pH 8.0) then incubated at 37° C. for 10 min in either control (buffer with no hOGG1) or enzyme treated (buffer with hOGG1) solutions according to the manufacturer's recommendations. (New England Biolabs, Ipswich, Mass.). Both control and enzyme treated gels were then placed in electrophoresis buffer and processed identically to the alkaline comet assay.
The enzyme hOgg1-modified comet assay was used and carried out identically as previously described (1).
as §1, with “For determination of oxidative DNA damage the” for “The”, “(5). After lysis in the alkaline comet assay,” for “for determination of oxidative DNA damage (25). Following lysis,”, “recommendations” for “recommendations.”
Control animals received vehicle only.

| Molecule | Cytokine mRNA expression in peripheral blood [1] | Direct mutagenicity/genotoxicity [2] | Percentage of cells positive for γ-H2AX nuclear foci vs non-treated ([3]; after first 7 day acute treatment, p<0.01) | Percent γ-H2AX positive cells vs non-treated, chronic phase ([3]; until end of treatment, p<0.05) | Micronuclei formation in normochromatic erythrocytes vs before injection [4] | Onset of DNA damage to peripheral leukocytes (comet and γ-H2AX) ([5]; TNF-α 500 ng/mouse) [hour post-injection] | Time until which DNA damage remained elevated ([5]; TNF-α 500 ng/mouse) | Time of maximum DNA damage to peripheral leukocytes [5] [hours post-injection] | Time to repair of DNA damage in peripheral leukocytes [5] [hours post-injection] |
| --- | --- | --- | --- | --- | --- | --- | --- | --- | --- |
| dextran sulfate sodium [DSS] | up-regulation of TNF-α, MCP-1 (CCL2), and IFN-γ | not a mutagen nor genotoxic; also recorded: not directly genotoxic | increased dramatically | remained elevated over non-treated animals |  |  |  |  |  |
| TNF-α |  |  |  |  | minimally yet significantly elevated | 1 | approximately 4 hours post-injection | 1 | ≤ 24 |
| B1 |  |  |  |  |  |  |  | 4 | ≤ 24 |
